Key:
[1] = target: T1, recombinant hemagglutinin HA1 subunit (rHA, H5) (Influenza A virus A/Vietnam/1203/2004 …, UniProt Q5EP31 17-346); experiment: BLI; rHA immobilized; apparent KD; BLI at 30 C in sodium-potassium phosphate buffer pH 7.4 ([…]; conditions: protein: commercial, label: none (rHA), 5'-biotin (vHA BLI)
[2] = target: T1, recombinant hemagglutinin HA1 subunit …; experiment: BLI; 50 nM control, reference signal; BLI at 30 C in sodium-potassium phosphate buffer pH 7.4 ([…]; conditions: protein: commercial; label: none (rHA); 5'-biotin (vHA BLI)

**Q.** With TTGGGGTTAGGGAGGGCGGGGGTT (structured_DNA) [G7-TTA_A_C] as the binder, how does the Kd ([1]; parallel G4, 86% monomer) read?
**A.** 0.4 ± 0.2 nM

**Q.** Does CGACGCACCATTTGTTTAATATGTTTTTTAATTCCCCTTGTGGTGCGTCG (ssDNA) [control oligonucleotide] bind [2]?
**A.** no binding

**Q.** How did the Kd [1] turn out when TTGGGGTTATTTTGGGAGGGCGGGGGTT (structured_DNA) [RHA0385] was run?
**A.** 0.6 ± 0.3 nM

**Q.** With GGGTTATTTTGGGAGGGCGGGGGTT (structured_DNA) [G7n5t] as the binder, how does the Kd ([1]; parallel G4, 74% monomer) read?
**A.** 0.3 ± 0.2 nM

**Q.** Which Kd [1] does the source give for GGGAGGGTGGGTGGG (structured_DNA) [G7nt-A_T_T] here?
**A.** 0.4 ± 0.2 nM

**Q.** How did the Kd [1] turn out when GGGTGGGTGGGAGGG (structured_DNA) [G7nt-T_T_A] was run?
**A.** 0.8 ± 0.2 nM

**Q.** Which Kd [1] does the source give for GGGTGGGTGGGTGGG (structured_DNA) [G7nt-T_T_T] here?
**A.** 0.7 ± 0.2 nM

**Q.** For GGGTGGGAGGGTGGG (structured_DNA) [G7nt-T_A_T], which Kd [1] is on record?
**A.** 0.6 ± 0.2 nM

**Q.** For TTGGGGTTATTTTGGGAGGGCGGG (structured_DNA) [G7n3t], which Kd ([1]; parallel G4, 100% monomer) is on record?
**A.** 0.4 ± 0.2 nM

**Q.** Which Kd ([1]; parallel G4, 77% monomer) does the source give for TTGGGGTTATTAAGGGAGGGCGGGGGTT (structured_DNA) [G7-TTATTAA_A_C] here?
**A.** 0.4 ± 0.2 nM

**Q.** GGGTTATTTTGGGAGGGCGGG (structured_DNA) [G7nt] was tested. Which Kd ([1]; parallel G4, 74% monomer) did it give?
**A.** 0.7 ± 0.3 nM

**Q.** With GGGAGGGAGGGAGGG (structured_DNA) [G7nt-A_A_A] as the binder, how does the Kd [1] read?
**A.** 0.6 ± 0.4 nM

Reference: article PMC7957560, “The Functional Role of Loops and Flanking Sequences of G-Quadruplex Aptamer to the Hemagglutinin of Influenza a Virus”
